The values below come from article PMC8961534, “Interaction with the Assembly Chaperone Ump1 Promotes Incorporation of the β7 Subunit into Half-Proteasome Precursor Complexes Driving Their Dimerization” (Biomolecules, 2022).

Assay [1] deals with ^17–148Ump1-6His (S. cerevisiae) (UniProt P38293). Kind of assay: fluorescence microscopy-based on-bead binding assay; Ump1-6His or ^17–148Ump1-6His from E. coli extracts bound to Ni-NTA beads and washed (20 mM imidazole); extracts with mNeonGreen fusion proteins, adjusted by fluorescence, added 1 h, 4 °C; beads imaged, quantified with Fiji (n = 5), empty vector background subtracted.

Assay [2] concerns the target T1, β7-∆CTE (β7 without C-terminal extension), untagged (S. cerevisiae, UniProt P30657 1-247).
T1 construct: β7/Pre4, S. cerevisiae, C-terminal extension (CTE, the last 19 residues) deleted; propeptide present; source: E. coli, purified
T1 sequence (looked up): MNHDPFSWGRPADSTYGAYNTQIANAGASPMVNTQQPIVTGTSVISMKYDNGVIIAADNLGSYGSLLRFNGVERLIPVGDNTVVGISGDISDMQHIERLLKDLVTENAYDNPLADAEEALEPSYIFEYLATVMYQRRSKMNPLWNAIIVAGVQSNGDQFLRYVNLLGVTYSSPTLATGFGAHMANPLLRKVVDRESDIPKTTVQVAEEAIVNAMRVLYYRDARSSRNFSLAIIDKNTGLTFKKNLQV
The assay is described as follows: pull-down; native extracts of E. coli expressing Ump1-6His incubated with Ni-NTA resin, washed, then incubated with purified untagged β7 versions; elution with imidazole, anti-β7 and anti-Ump1 Western blotting, LI-COR quantification (n = 3). The settings on record: both partners purified. In general terms: Immunoblotting shows a protein as a band on a membrane.

“full-length β7 (^1–266β7) fused to mNeonGreen and 2HA (from UniProt P30657 1-266) (natural protein)” registered a reduction in binding efficiency against full-length Ump1 in assay [1] of 50%.

B1: full-length Ump1-6His (natural protein, S. cerevisiae, UniProt P38293 1-148, looked up)
chain: MNIVPQDTFKSQVSTDQDKSVLSSAVPSLPDTLRQQEGGAVPLSTQLNDRHPLESTLKNWETTQRQRQMEQYRQIFGIAEPMKRTMEMEIVNRTDFNPLSTNGSIHRDILLNKECSIDWEDVYPGTGLQASTMVGDDVHSKIEKQLGI
notes: source: E. coli; not shown: 6His, C-terminal, kept
Consider B1, for which, in assay [2], the binding result was “binds”.
